Test results as given in publication PMC10419011.

Experiments:
[1] = molecular target: neuropeptide Y (Homo sapiens), P01303; test: competition; settings: remark: other sources report otherwise
K^18-TAMRA-NPY = test: fluorescence polarisation; various concentrations of receptor in small DMPC/DHPC bicelles with 50 nM (K^18-TAMRA)-NPY, 1 h at room temperature, measured at 20 °C; sigmoidal dose-response fit

Row | Kd [1] [nM] | Kd (K^18-TAMRA-NPY) [nM] | Binder
1 | 2.3 | – | neuropeptide Y receptor Y2, P49146 (protein) MGPIGAEADENQTVEEMKVEQYGPQTTPRGELVPDPEPELIDSTKLIEVQVVLILAYCSIILLGVIGNSLVIHVVIKFKSMRTVTNFFIANLAVADLLVNTLCLPFTLTYTLMGEWKMGPVLCHLVPYAQGLAVQVSTITLTVIALDRHRCIVYHLESKISKRISFLIIGLAWGISALLASPLAIFREYSLIEIIPDFEIVACTEKWPGEEKSIYGTVYSLSSLLILYVLPLGIISFSYTRIWSKLKNHVSPGAANDHYHQRRQKTTKMLVCVVVVFAVSWLPLHAFQLAVDIDSQVLDLKEYKLIFTVFHIIAMCSTFANPLLYGWMNSNYRKAFLSAFRCEQRLDAIHSEVSVTFKAKKNLEVRKNSGPNDSFTEATNV
2 | – | 61.4 | Y2R_A202^45.49C-Δ6Cys-polyHis, P49146 1-381 (receptor, modifications not checked) MGPIGAEADENQTVEEMKVEQYGPQTTPRGELVPDPEPELIDSTKLIEVQVVLILAYASIILLGVIGNSLVIHVVIKFKSMRTVTNFFIANLAVADLLVNTLALPFTLTYTLMGEWKMGPVLCHLVPYAQGLAVQVSTITLTVIALDRHRAIVYHLESKISKRISFLIIGLAWGISALLASPLAIFREYSLIEIIPDFEIVCCTEKWPGEEKSIYGTVYSLSSLLILYVLPLGIISFSYTRIWSKLKNHVSPGAANDHYHQRRQKTTKMLVSVVVVFAVSWLPLHAFQLAVDIDSQVLDLKEYKLIFTVFHIIAMASTFANPLLYGWMNSNYRKAFLSAFRSEQRLDAIHSEVSVTFKAKKNLEVRKNSGPNDSFTEATNV
